From patent US11471462B2, “Compositions and methods for detecting and treating diabetes” (THE BROAD INSTITUTE, INC., priority 2016, dated 2022)

B1: BRAT1 (protein)
chain: MDPECAQLLPALCAVLVDPRQPVADDTCLEKLLDWFKTVTEGESSVVLLQEHPCLVELLSHVLKVQDLSSGVLSFSLRLAGTFAAQENCFQYLQQGELLPGLFGEPGPLGRATWAVPTVRSGWIQGLRSLAQHPSALRFLADHGAVDTIFSLQGDSSLFVASAASQLLVHVLALSMRGGAEGQPCLPGGDWPACAQKIMDHVEESLCSAATPKVTQALNVLTTTFGRCQSPWTEALWVRLSPRVACLLERDPIPAAHSFVDLLLCVARSPVFSSSDGSLWETVARALSCLGPTHMGPLALGILKLEHCPQALRTQAFQVLLQPLACVLKATVQAPGPPGLLDGTADDATTVDTLLASKSSCAGLLCRTLAHLEELQPLPQRPSPWPQASLLGATVTVLRLCDGSAAPASSVGGHLCGTLAGCVRVQRAALDFLGTLSQGTGPQELVTQALAVLLECLESPGSSPTVLKKAFQATLRWLLSSPKTPGCSDLGPLIPQFLRELFPVLQKRLCHPCWEVRDSALEFLTQLSRHWGGQADFRCALLASEVPQLALQLLQDPESYVRASAVTAMGQLSSQGLHAPTSPEHAEARQSLFLELLHILSVDSEGFPRRAVMQVFTEWLRDGHADAAQDTEQFVATVLQAASRDLDWEVRAQGLELALVFLGQTLGPPRTHCPYAVALPEVAPAQPLTEALRALCHVGLFDFAFCALFDCDRPVAQKSCDLLLFLRDKIASYSSLREARGSPNTASAEATLPRWRAGEQAQPPGDQEPEAVLAMLRSLDLEGLRSTLAESSDHVEKSPQSLLQDMLATGGFLQGDEADCY
B2: HEATR2 (protein)
chain: AALGVAEAVAAPHPAEGAETAEAVELSRALSRLLPGLEADSKPGRRRALEALRRALEEPGPAADPTAFQGPWARLLLPRLLRCLSDPAEGCRALAVHLLDLGLRRAARPRDALPRLLPALAARLAGPVPARRPPEACEELRLALVQLLGLAVDLCGAALAPHLDDALRALRCSLLDPFAAVRRESCSCAAALAQATPDHFHMQSESLIGPLMQTISHQHWKVRVAAIEATGAVIHFGNGKSVDDVLSHFAQRLFDDVPQVRRAVASVVGGWLLCLRDRYSFFHKLIPLLLSSLNDEVPEVRQLAASLWEDVGLQWQKENEEDLKDKLDFAPPTPPHYPPHERRPVLGCRELVFRNLSKILPALCHDITDWVVGTRVKSAQLLPVLLLHAEDHATQHLEVVLRTLFQACTDEEAAVVQSCTRSAELVGTFVSPEVFLKLILSTLKKTPSASGLLVLASAMRGCPREALQPHLAAIATELAQAHICQASENDLYLERLLLCVQALVSVCHEDCGVASLQLLDVLLTIVALAGATGLRDKAQETMDSLAMVEGVSSCQDLYRKHIGPLLERVTASHLDWTAHSPELLQFSVIVAQSGPALGEALPHVVPTLRACLQPSQDPQMRLKLFSILSTVLLRATDTINSQGQFPSYLETVTKDILAPNLQWHAGRTAAAIRTAAVSCLWALTSSEVLSAEQIRDVQETLMPQVLTTLEEDSKMTRLISCRIINTFLKTSGGMTDPEKLIRIYPELLKRLDDVSNDVRMAAASTLVTWLQCVKGANAKSYYQSSVQYLYRELLVHLDDPERAIQDAILEVLKEGSGLFPDLLVRETEAVIHKHRSATYCEQLLQHVQAVPATQ
B3: STT3A (protein)
chain: MTKFGFLRLSYEKQDTLLKLLILSMAAVLSFSTRLFAVLRFESVIHEFDPYFNYRTTRFLAEEGFYKFHNWFDDRAWYPLGRIIGGTIYPGLMITSAAIYHVLHFFHITIDIRNVCVFLAPLFSSFTTIVTYHLTKELKDAGAGLLAAAMIAVVPGYISRSVAGSYDNEGIAIFCMLLTYYMWIKAVKTGSICWAAKCALAYFYMVSSWGGYVFLINLIPLHVLVLMLTGRFSHRIYVAYCTVYCLGTILSMQISFVGFQPVLSSEHMAAFGVFGLCQIHAFVDYLRSKLNPQQFEVLFRSVISLVGFVLLTVGALLMLTGKISPWTGRFYSLLDPSYAKNNIPIIASVSEHQPTTWSSYYFDLQLLVFMFPVGLYYCFSNLSDARIFIIMYGVTSMYFSAVMVRLMLVLAPVMCILSGIGVSQVLSTYMKNLDISRPDKKSKKQQDSTYPIKNEVASGMILVMAFFLITYTFHSTWVTSEAYSSPSIVLSARGGDGSRIIFDDFREAYYWLRHNTPEDAKVMSWWDYGYQITAMANRTILVDNNTWNNTHISRVGQAMASTEEKAYEIMRELDVSYVLVIFGGLTGYSSDDINKFLWMVRIGGSTDTGKHIKENDYYTPTGEFRVDREGSPVLLNCLMYKMCYYRFGQVYTEAKRPPGFDRVRNAEIGNKDFELDVLEEAYTTEHWLVRIYKVKDLDNRGLSRT
B4: TUBA1C (protein)
chain: MTAWFNGVEELGRDECFVCLELDPSNGSFLNAKLYISNWILIYFTRTLQLPAPFNTCTSSKSRGEPGCDSKRECISIHVGQAGVQIGNACWELYCLEHGIQPDGQMPSDKTIGGGDDSFNTFFSETGAGKHVPRAVFVDLEPTVIDEVRTGTYRQLFHPEQLITGKEDAANNYARGHYTIGKEIIDLVLDRIRKLADQCTGLQGFLVFHSFGGGTGSGFTSLLMERLSVDYGKKSKLEFSIYPAPQVSTAVVEPYNSILTTHTTLEHSDCAFMVDNEAIYDICRRNLDIERPTYTNLNRLISQIVSSITASLRFDGALNVDLTEFQTNLVPYPRIHFPLATYAPVISAEKAYHEQLTVAEITNACFEPANQMVKCDPRHGKYMACCLLYRGDVVPKDVNAAIATIKTKRTIQFVDWCPTGFKVGINYQPPTVVPGGDLAKVQRAVCMLSNTTAVAEAWARLDHKFDLMYAKRAFVHWYVGEGMEEGEFSEAREDMAALEKDYEEVGADSADGEDEGEEY
B5: TUBA4A (protein)
chain: MRECISVHVGQAGVQMGNACWELYCLEHGIQPDGQMPSDKTIGGGDDSFTTFFCETGAGKHVPRAVFVDLEPTVIDEIRNGPYRQLFHPEQLITGKEDAANNYARGHYTIGKEIIDPVLDRIRKLSDQCTGLQGFLVFHSFGGGTGSGFTSLLMERLSVDYGKKSKLEFSIYPAPQVSTAVVEPYNSILTTHTTLEHSDCAFMVDNEAIYDICRRNLDIERPTYTNLNRLISQIVSSITASLRFDGALNVDLTEFQTNLVPYPRIHFPLATYAPVISAEKAYHEQLSVAEITNACFEPANQMVKCDPRHGKYMACCLLYRGDVVPKDVNAAIAAIKTKRSIQFVDWCPTGFKVGINYQPPTVVPGGDLAKVQRAVCMLSNTTAIAEAWARLDHKFDLMYAKRAFVHWYVGEGMEEGEFSEAREDMAALEKDYEEVGIDSYEDEDEGEE
B6: QIL1 (protein)
chain: MVARVWSLMRFLIKGSVAGGAVYLVYDQELLGPSDKSQAALQKAGEVVPPAMYQFSQYVCQQTGLQIPQLPAPPKIYFPIRDSWNAGIMTVMSALSVAPSKAREYSKEGWEYVKARTK
B7: DNAJC7 (protein)
chain: AAAAECDVVMAATEPELLDDQEAKREAETFKEQGNAYYAKKDYNEAYNYYTKAIDMCPKNASYYGNRAATLMMLGRFREALGDAQQSVRLDDSFVRGHLREGKCHLSLGNAMAACRSFQRALELDHKNAQAQQEFKNANAVMEYEKIAETDFEKRDFRKVVFCMDRALEFAPACHRFKILKAECLAMLGRYPEAQSVASDILRMDSTNADALYVRGLCLYYEDCIEKAVQFFVQALRMAPDHEKACIACRNAKALKAKKEDGNKAFKEGNYKLAYELYTEALGIDPNNIKTNAKLYCNRGTVNSKLRKLDDAIEDCTNAVKLDDTYIKAYLRRAQCYMDTEQYEEAVRDYEKVYQTEKTKEHKQLLKNAQLELKKSKRKDYYKILGVDKNASEDEIKKAYRKRALMHHPDRHSGASAEVQKEEEKKFKEVGEAFTILSDPKKKTRYDSGQDLDEEGMNMGDFDPNNIFKAFFGGPGGFSFEASGPGNFFFQFG

These molecules were tested on SLC16A11 (assay: SLC16A11 protein-protein interaction study (immunoprecipitation, quantitative mass spectrometry)). Settings: putative SLC16A11^REF interaction partners; immunoprecipitation from HEK293T cells vs empty vector control; Blandt-Altman.
Design: species or system human
B1 was tested, and the “BA log fold change” value was 1.04.
For B2, the “BA log fold change” value was 1.03.
For B3, the “BA log fold change” value was 1.27.
With B4 the “BA log fold change” value was 1.04.
In the case of B5, the “BA log fold change” value is reported as 1.02.
For B6, the “BA log fold change” value was 1.08.
For B7, the “BA log fold change” value was 1.05.
